Assay results reported in publication PMC9482650, “Quantitative fragmentomics allow affinity mapping of interactomes” (Nature Communications, 2022).

T1: PDZD2_2, O15018
T1 sequence (O15018 329-429, limits assumed, looked up): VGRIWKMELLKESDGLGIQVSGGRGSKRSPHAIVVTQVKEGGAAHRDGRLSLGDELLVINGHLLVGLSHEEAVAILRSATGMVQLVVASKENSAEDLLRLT

T2: DLG3_2, Q92796
T2 sequence (Q92796 221-321, limits assumed, looked up): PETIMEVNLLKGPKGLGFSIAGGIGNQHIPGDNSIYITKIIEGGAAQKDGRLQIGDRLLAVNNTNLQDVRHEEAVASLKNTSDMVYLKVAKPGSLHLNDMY

T3: DFNB31_3, Q9P202
T3 sequence (Q9P202 811-907, limits assumed, looked up): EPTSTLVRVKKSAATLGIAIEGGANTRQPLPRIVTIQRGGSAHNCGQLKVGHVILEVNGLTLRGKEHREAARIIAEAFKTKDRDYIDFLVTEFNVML

T4: MPDZ_12, O75970
T4 sequence (O75970 1857-1958, limits assumed, looked up): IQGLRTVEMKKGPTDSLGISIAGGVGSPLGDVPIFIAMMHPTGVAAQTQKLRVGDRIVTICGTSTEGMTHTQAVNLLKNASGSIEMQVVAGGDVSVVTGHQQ

T5: SNTA1, Q13424
T5 sequence (Q13424 82-180, limits assumed, looked up): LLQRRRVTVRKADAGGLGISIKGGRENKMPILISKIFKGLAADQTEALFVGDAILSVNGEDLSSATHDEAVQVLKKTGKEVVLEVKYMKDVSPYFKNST

T6: GRIP1_4, Q9Y3R0
T6 sequence (Q9Y3R0 467-571, limits assumed, looked up): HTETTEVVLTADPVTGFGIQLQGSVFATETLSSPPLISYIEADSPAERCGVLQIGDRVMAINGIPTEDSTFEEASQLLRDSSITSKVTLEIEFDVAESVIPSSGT

T7: MPP7, Q5T2T1
T7 sequence (Q5T2T1 134-230, limits assumed, looked up): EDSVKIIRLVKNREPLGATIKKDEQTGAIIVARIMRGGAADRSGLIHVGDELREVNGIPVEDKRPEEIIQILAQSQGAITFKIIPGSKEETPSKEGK

T8: MPDZ_5, O75970
T8 sequence (O75970 695-796, limits assumed, looked up): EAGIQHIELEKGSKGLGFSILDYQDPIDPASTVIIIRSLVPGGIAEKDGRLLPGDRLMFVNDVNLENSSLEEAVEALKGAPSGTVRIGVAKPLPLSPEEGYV

T9: MPDZ_10, O75970
T9 sequence (O75970 1624-1722, limits assumed, looked up): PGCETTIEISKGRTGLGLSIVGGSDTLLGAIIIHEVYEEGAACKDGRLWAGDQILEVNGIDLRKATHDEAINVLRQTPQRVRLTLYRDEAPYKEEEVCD

T10: DFNB31_2, Q9P202
T10 sequence (Q9P202 274-371, limits assumed, looked up): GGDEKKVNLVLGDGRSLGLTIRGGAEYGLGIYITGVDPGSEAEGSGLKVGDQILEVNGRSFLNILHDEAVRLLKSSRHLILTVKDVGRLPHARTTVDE

T11: TX1BP3, O14907
T11 sequence (O14907 10-122, limits assumed, looked up): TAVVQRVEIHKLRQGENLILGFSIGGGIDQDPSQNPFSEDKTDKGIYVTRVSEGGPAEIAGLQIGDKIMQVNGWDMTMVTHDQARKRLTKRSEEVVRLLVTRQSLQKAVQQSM

T12: PDZRN3_1, Q9UPQ7
T12 sequence (Q9UPQ7 244-349, limits assumed, looked up): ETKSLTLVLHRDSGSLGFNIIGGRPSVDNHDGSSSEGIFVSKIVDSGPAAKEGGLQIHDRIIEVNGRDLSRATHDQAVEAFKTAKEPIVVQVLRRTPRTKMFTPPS

T13: ARHGAP21, Q5T5U3
T13 sequence (Q5T5U3 45-169, limits assumed, looked up): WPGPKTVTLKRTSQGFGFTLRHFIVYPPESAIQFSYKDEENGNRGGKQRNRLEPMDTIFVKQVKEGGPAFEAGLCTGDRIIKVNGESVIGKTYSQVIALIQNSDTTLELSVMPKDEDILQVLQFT


biological target: GRIP2_6, Q9C0E4; assay: holdup assay; parameters: key: below the threshold = too weak to quantify, mostly under pKd 3.1 to 4; conditions: plain residues with an end cap or a label only (N-terminal biotin on a linker: ado-ado)
Sequence (Q9C0E4 648-740): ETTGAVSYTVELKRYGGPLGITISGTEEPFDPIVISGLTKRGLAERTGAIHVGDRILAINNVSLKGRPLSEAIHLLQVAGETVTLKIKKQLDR

Row | pKd | Binder
1 | below the threshold | RDPPAEWTRV [PTPN18, Q99952]
2 | below the threshold | RSSGGDDFWF [KCNV1, Q6PIU1]

biological target: Inadl_3, Q8NI35; assay: holdup assay; parameters: key: below the threshold = too weak to quantify, mostly under pKd 3.1 to 4; conditions: plain residues with an end cap or a label only (N-terminal biotin on a linker: ado-ado)
Sequence (Q8NI35 359-469): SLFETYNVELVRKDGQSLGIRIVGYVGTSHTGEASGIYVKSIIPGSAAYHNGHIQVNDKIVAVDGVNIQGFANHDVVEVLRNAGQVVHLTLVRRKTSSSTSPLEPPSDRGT

Row | pKd | Binder
3 | below the threshold | RDPPAEWTRV [PTPN18, Q99952]
4 | 3.59 | RSSGGDDFWF [KCNV1, Q6PIU1]

biological target: T1, PDZD2_2, O15018; assay: holdup assay; parameters: key: below the threshold = too weak to quantify, mostly under pKd 3.1 to 4; conditions: plain residues with an end cap or a label only (N-terminal biotin on a linker: ado-ado)

Row | pKd | Binder
5 | 4.18 | RDPPAEWTRV [PTPN18, Q99952]
6 | 4.37 | RSSGGDDFWF [KCNV1, Q6PIU1]

biological target: T2, DLG3_2, Q92796; assay: holdup assay; parameters: key: below the threshold = too weak to quantify, mostly under pKd 3.1 to 4; conditions: plain residues with an end cap or a label only (N-terminal biotin on a linker: ado-ado)

Row | pKd | Binder
7 | 4.2 | RDPPAEWTRV [PTPN18, Q99952]
8 | 4.06 | RSSGGDDFWF [KCNV1, Q6PIU1]

biological target: TJP1_2, Q07157; assay: holdup assay; parameters: key: below the threshold = too weak to quantify, mostly under pKd 3.1 to 4; conditions: plain residues with an end cap or a label only (N-terminal biotin on a linker: ado-ado)
Sequence (Q07157 181-274): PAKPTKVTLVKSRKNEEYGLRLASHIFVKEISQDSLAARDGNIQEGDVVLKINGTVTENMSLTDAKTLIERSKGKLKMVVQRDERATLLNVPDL

Row | pKd | Binder
9 | below the threshold | RDPPAEWTRV [PTPN18, Q99952]
10 | 5.12 | RSSGGDDFWF [KCNV1, Q6PIU1]

biological target: T3, DFNB31_3, Q9P202; assay: holdup assay; parameters: key: below the threshold = too weak to quantify, mostly under pKd 3.1 to 4; conditions: plain residues with an end cap or a label only (N-terminal biotin on a linker: ado-ado)

Row | pKd | Binder
11 | below the threshold | RDPPAEWTRV [PTPN18, Q99952]
12 | 4.02 | RSSGGDDFWF [KCNV1, Q6PIU1]

biological target: T4, MPDZ_12, O75970; assay: holdup assay; parameters: key: below the threshold = too weak to quantify, mostly under pKd 3.1 to 4; conditions: plain residues with an end cap or a label only (N-terminal biotin on a linker: ado-ado)

Row | pKd | Binder
13 | 3.66 | RDPPAEWTRV [PTPN18, Q99952]
14 | below the threshold | RSSGGDDFWF [KCNV1, Q6PIU1]

biological target: HTRA1, Q92743; assay: holdup assay; parameters: key: below the threshold = too weak to quantify, mostly under pKd 3.1 to 4; conditions: plain residues with an end cap or a label only (N-terminal biotin on a linker: ado-ado)
Sequence (Q92743 360-477): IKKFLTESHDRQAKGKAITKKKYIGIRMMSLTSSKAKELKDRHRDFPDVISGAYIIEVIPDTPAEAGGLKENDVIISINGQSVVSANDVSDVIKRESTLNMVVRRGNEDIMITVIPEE

Row | pKd | Binder
15 | 4.4 | RDPPAEWTRV [PTPN18, Q99952]
16 | 4.61 | RSSGGDDFWF [KCNV1, Q6PIU1]

biological target: T5, SNTA1, Q13424; assay: holdup assay; parameters: key: below the threshold = too weak to quantify, mostly under pKd 3.1 to 4; conditions: plain residues with an end cap or a label only (N-terminal biotin on a linker: ado-ado)

Row | pKd | Binder
17 | 4.39 | RDPPAEWTRV [PTPN18, Q99952]
18 | below the threshold | RSSGGDDFWF [KCNV1, Q6PIU1]

biological target: T6, GRIP1_4, Q9Y3R0; assay: holdup assay; parameters: key: below the threshold = too weak to quantify, mostly under pKd 3.1 to 4; conditions: plain residues with an end cap or a label only (N-terminal biotin on a linker: ado-ado)

Row | pKd | Binder
19 | below the threshold | RDPPAEWTRV [PTPN18, Q99952]
20 | below the threshold | RSSGGDDFWF [KCNV1, Q6PIU1]

biological target: T7, MPP7, Q5T2T1; assay: holdup assay; parameters: key: below the threshold = too weak to quantify, mostly under pKd 3.1 to 4; conditions: plain residues with an end cap or a label only (N-terminal biotin on a linker: ado-ado)

Row | pKd | Binder
21 | below the threshold | RDPPAEWTRV [PTPN18, Q99952]
22 | 4.45 | RSSGGDDFWF [KCNV1, Q6PIU1]

biological target: IL16_1, Q14005; assay: holdup assay; parameters: key: below the threshold = too weak to quantify, mostly under pKd 3.1 to 4; conditions: plain residues with an end cap or a label only (N-terminal biotin on a linker: ado-ado)
Sequence (Q14005 210-306): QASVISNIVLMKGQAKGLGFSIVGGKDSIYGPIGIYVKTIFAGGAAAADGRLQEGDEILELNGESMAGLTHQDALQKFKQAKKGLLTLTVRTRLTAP

Row | pKd | Binder
23 | below the threshold | RDPPAEWTRV [PTPN18, Q99952]
24 | below the threshold | RSSGGDDFWF [KCNV1, Q6PIU1]

biological target: Inadl_4, Q8NI35; assay: holdup assay; parameters: key: below the threshold = too weak to quantify, mostly under pKd 3.1 to 4; conditions: plain residues with an end cap or a label only (N-terminal biotin on a linker: ado-ado)
Sequence (Q8NI35 547-651): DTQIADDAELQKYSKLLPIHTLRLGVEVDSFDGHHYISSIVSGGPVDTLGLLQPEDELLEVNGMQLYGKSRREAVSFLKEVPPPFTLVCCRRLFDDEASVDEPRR

Row | pKd | Binder
25 | below the threshold | RDPPAEWTRV [PTPN18, Q99952]
26 | below the threshold | RSSGGDDFWF [KCNV1, Q6PIU1]

biological target: LIMK2, P53671; assay: holdup assay; parameters: key: below the threshold = too weak to quantify, mostly under pKd 3.1 to 4; conditions: plain residues with an end cap or a label only (N-terminal biotin on a linker: ado-ado)
Sequence (P53671 143-248): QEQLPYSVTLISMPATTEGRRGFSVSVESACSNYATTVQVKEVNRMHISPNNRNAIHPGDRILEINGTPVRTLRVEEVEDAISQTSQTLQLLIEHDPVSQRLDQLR

Row | pKd | Binder
27 | below the threshold | RDPPAEWTRV [PTPN18, Q99952]
28 | below the threshold | RSSGGDDFWF [KCNV1, Q6PIU1]

biological target: PDLIM1, O00151; assay: holdup assay; parameters: key: below the threshold = too weak to quantify, mostly under pKd 3.1 to 4; conditions: plain residues with an end cap or a label only (N-terminal biotin on a linker: ado-ado)
Sequence (O00151 1-87): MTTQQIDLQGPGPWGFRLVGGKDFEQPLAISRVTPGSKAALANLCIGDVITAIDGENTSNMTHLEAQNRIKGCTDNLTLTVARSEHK

Row | pKd | Binder
29 | below the threshold | RDPPAEWTRV [PTPN18, Q99952]
30 | below the threshold | RSSGGDDFWF [KCNV1, Q6PIU1]

biological target: T8, MPDZ_5, O75970; assay: holdup assay; parameters: key: below the threshold = too weak to quantify, mostly under pKd 3.1 to 4; conditions: plain residues with an end cap or a label only (N-terminal biotin on a linker: ado-ado)

Row | pKd | Binder
31 | below the threshold | RDPPAEWTRV [PTPN18, Q99952]
32 | below the threshold | RSSGGDDFWF [KCNV1, Q6PIU1]

biological target: T9, MPDZ_10, O75970; assay: holdup assay; parameters: key: below the threshold = too weak to quantify, mostly under pKd 3.1 to 4; conditions: plain residues with an end cap or a label only (N-terminal biotin on a linker: ado-ado)

Row | pKd | Binder
33 | below the threshold | RDPPAEWTRV [PTPN18, Q99952]
34 | below the threshold | RSSGGDDFWF [KCNV1, Q6PIU1]

biological target: FRMPD3, Q5JV73; assay: holdup assay; parameters: key: below the threshold = too weak to quantify, mostly under pKd 3.1 to 4; conditions: plain residues with an end cap or a label only (N-terminal biotin on a linker: ado-ado)
Sequence (Q5JV73 12-100): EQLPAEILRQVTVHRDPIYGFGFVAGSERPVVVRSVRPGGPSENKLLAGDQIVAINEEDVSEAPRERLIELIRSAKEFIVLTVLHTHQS

Row | pKd | Binder
35 | below the threshold | RDPPAEWTRV [PTPN18, Q99952]
36 | 4.82 | RSSGGDDFWF [KCNV1, Q6PIU1]

biological target: T10, DFNB31_2, Q9P202; assay: holdup assay; parameters: key: below the threshold = too weak to quantify, mostly under pKd 3.1 to 4; conditions: plain residues with an end cap or a label only (N-terminal biotin on a linker: ado-ado)

Row | pKd | Binder
37 | below the threshold | RDPPAEWTRV [PTPN18, Q99952]
38 | below the threshold | RSSGGDDFWF [KCNV1, Q6PIU1]

biological target: T11, TX1BP3, O14907; assay: holdup assay; parameters: key: below the threshold = too weak to quantify, mostly under pKd 3.1 to 4; conditions: plain residues with an end cap or a label only (N-terminal biotin on a linker: ado-ado)

Row | pKd | Binder
39 | 4.06 | RDPPAEWTRV [PTPN18, Q99952]
40 | below the threshold | RSSGGDDFWF [KCNV1, Q6PIU1]

biological target: T12, PDZRN3_1, Q9UPQ7; assay: holdup assay; parameters: key: below the threshold = too weak to quantify, mostly under pKd 3.1 to 4; conditions: plain residues with an end cap or a label only (N-terminal biotin on a linker: ado-ado)

Row | pKd | Binder
41 | 3.55 | RDPPAEWTRV [PTPN18, Q99952]
42 | below the threshold | RSSGGDDFWF [KCNV1, Q6PIU1]

biological target: MAGI3_2, Q5TCQ9; assay: holdup assay; parameters: key: below the threshold = too weak to quantify, mostly under pKd 3.1 to 4; conditions: plain residues with an end cap or a label only (N-terminal biotin on a linker: ado-ado)
Sequence (Q5TCQ9 398-503): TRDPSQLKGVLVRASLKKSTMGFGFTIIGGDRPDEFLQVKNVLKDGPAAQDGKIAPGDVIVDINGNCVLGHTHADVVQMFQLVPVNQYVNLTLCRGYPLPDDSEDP

Row | pKd | Binder
43 | 4.27 | RDPPAEWTRV [PTPN18, Q99952]
44 | below the threshold | RSSGGDDFWF [KCNV1, Q6PIU1]

biological target: T13, ARHGAP21, Q5T5U3; assay: holdup assay; parameters: key: below the threshold = too weak to quantify, mostly under pKd 3.1 to 4; conditions: plain residues with an end cap or a label only (N-terminal biotin on a linker: ado-ado)

Row | pKd | Binder
45 | 3.95 | RDPPAEWTRV [PTPN18, Q99952]
46 | 4.8 | RSSGGDDFWF [KCNV1, Q6PIU1]

biological target: MAGI2_2, Q86UL8; assay: holdup assay; parameters: key: below the threshold = too weak to quantify, mostly under pKd 3.1 to 4; conditions: plain residues with an end cap or a label only (N-terminal biotin on a linker: ado-ado)
Sequence (Q86UL8 410-522): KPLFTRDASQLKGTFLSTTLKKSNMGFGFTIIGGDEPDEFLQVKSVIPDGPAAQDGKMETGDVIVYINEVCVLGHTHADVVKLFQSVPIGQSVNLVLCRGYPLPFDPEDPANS

Row | pKd | Binder
47 | 4.04 | RDPPAEWTRV [PTPN18, Q99952]
48 | below the threshold | RSSGGDDFWF [KCNV1, Q6PIU1]
